Biological target: the molecule itself
Test: cross-linking

B1: PrfA L140F (natural protein)
chain: MNAQAEEFKKYLETNGIKPKQFHKKELIFNQWDPQEYCIFLYDGITKLTSISENGTIMNLQYYKGAFVIMSGFIDTETSVGYYNLEVISEQATAYVIKINELKELLSKNLTHFFYVFQTLQKQVSYSLAKFNDFSINGKFGSICGQLLILTYVYGKETPDGIKITLDNLTMQELGYSSGIAHSSAVSRIISKLKQEKVIVYKNSCFYVQNLDYLKRYAPKLDEWFYLACPATWGKLN
B1: binds.

B2: PrfA Y63C (natural protein)
chain: MNAQAEEFKKYLETNGIKPKQFHKKELIFNQWDPQEYCIFLYDGITKLTSISENGTIMNLQYCKGAFVIMSGFIDTETSVGYYNLEVISEQATAYVIKINELKELLSKNLTHFFYVFQTLQKQVSYSLAKFNDFSINGKLGSICGQLLILTYVYGKETPDGIKITLDNLTMQELGYSSGIAHSSAVSRIISKLKQEKVIVYKNSCFYVQNLDYLKRYAPKLDEWFYLACPATWGKLN
B2: binds.

B3: wild-type PrfA (positive regulatory factor A) (natural protein)
chain: MNAQAEEFKKYLETNGIKPKQFHKKELIFNQWDPQEYCIFLYDGITKLTSISENGTIMNLQYYKGAFVIMSGFIDTETSVGYYNLEVISEQATAYVIKINELKELLSKNLTHFFYVFQTLQKQVSYSLAKFNDFSINGKLGSICGQLLILTYVYGKETPDGIKITLDNLTMQELGYSSGIAHSSAVSRIISKLKQEKVIVYKNSCFYVQNLDYLKRYAPKLDEWFYLACPATWGKLN
With B3 the “stoichiometry N” value was 2.

From PMC2646509 (Microbiology (Reading, England), 2008)
